The results in this text go back to patent US20250092127A1 (Regeneron, published 2025).

In the assay the target is T1, mouse IL-4R (mouse, UniProt P16382 26-233, limits assumed).
T1 sequence (looked up): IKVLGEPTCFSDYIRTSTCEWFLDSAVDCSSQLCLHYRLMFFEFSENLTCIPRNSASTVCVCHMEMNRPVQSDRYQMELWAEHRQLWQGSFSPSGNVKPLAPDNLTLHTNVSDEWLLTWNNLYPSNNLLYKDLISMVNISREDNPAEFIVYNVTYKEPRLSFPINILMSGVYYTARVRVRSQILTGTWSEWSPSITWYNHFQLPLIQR
The experiment in a line: cell-based or functional assay.

B1: REGN1103 (antibody, V domains shown)
VH: EVQLQQSGPELVKPGASVRMSCKASGYTFTDYNIHWVKQSHGKSLEWIGYIYPNNGDNGYNQKFRGKATLTVDKSSSTAYMELRSLTSDDSAVYYCARGRLRYFDVWGTGTTVTVSS
VL: NIVLTQSPASLAVSLGQRATISCRASESVDNYGHSFMHWYQQKPGQPPKLLIYLASNLESGVPARFSGSGSRTDFTLTLDPVEADDAATYYCQQYNEDPPTFGSGTKLEIK
As for B1, the “IC50 of inhibition of IL-4-dependent proliferation of cell lines” value was found to be 1.9 nM and the “IC50 of inhibition of IL-13-dependent proliferation of cell lines” value was 0.011 nM.
